Measured values as given in the supplement of paper PMC7877785.
± gives the uncertainty stated by the source.

Test: self-splicing fitness, log relative to wild type (ln ratio); higher = more splicing; Tetrahymena group I intron in knt gene, E. coli kanamycin selection, DiMSum; sequences stand for … in CUCUCU…GGAGGGAAAAGUUAUCAGGCAUGCACCUGGUAGCUAGUCUUUAAACCAAUAGAUUGCAUCGGUUUAAAAGGCAAGACCGUCAAAUUGCGGGAAAGGGGUCAACAGCCGUUCAGUACCAAGUCUCAGGGGAAACUUUGAGAUGGCCUUGCAAAGGGUAUGGUAAUAAGCUGACGGACAUGGUCCUAACCACGCAGCCAAGUCCUAAGUCAACAGAUCUUCUGUUGAUAUGGAUGCAGUUCACAGACUAAAUGUCGGUCGGGGAAGAUGUAUUCUUCUCAUAAGAUAUAGUCGGACCUCUCCUUAAUGGGAGCUAGCGGAUGAAGUGAUGCAACACUGGAGCCGCUGGGAACUAAUUUGUAUGCGAAAGUAUAUUGAUUAGUUUUGGAGUACUCGUGGUCG
Method in brief: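 Library with all eight P1ex-region intron nucleotides randomised, intron inside the knt kanamycin-resistance gene on pET-22b(+), in E. coli BL21(DE3). Cells grew overnight at 37°C or 30°C on LB agar with or without 25 μg/mL kanamycin (plus 100 μg/mL carbenicillin, 50 μM IPTG, 0.2% rhamnose), in six replicate transformations. Pooled colonies were amplicon-sequenced on Illumina HiSeq 2500. DiMSum fitness is the error-weighted combination of wild-type-normalised replicate fold changes, kanamycin versus none.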

Sequence	self-splicing fitness (ln) (30 °C)	self-splicing fitness (ln) (37 °C)
UUAGAGCAAUAUUACGUGUU	-4.76 ± 0.32	-2.53 ± 0.28
UUAGAGCAAUAUUACGUUAG	-0.978 ± 0.13	0.238 ± 0.21
UUAUAGCAAUAUUACGACGC	-2.63 ± 0.45	–
UUAUAGCAAUAUUACGAGAA	–	-1.51 ± 0.38
UUAUAGCAAUAUUACGAGGC	-3.95 ± 0.37	-3.71 ± 0.42
UUAUAGCAAUAUUACGAGUU	–	-1.96 ± 0.2
UUAUAGCAAUAUUACGAUAC	–	-1.53 ± 0.27
UUAUAGCAAUAUUACGAUAU	-1.97 ± 0.13	-0.578 ± 0.17
UUAUAGCAAUAUUACGCCAU	-3.93 ± 0.31	-3.15 ± 0.28
UUAUAGCAAUAUUACGCGAC	-2.5 ± 0.19	-1.98 ± 0.2
UUAUAGCAAUAUUACGCGAG	-0.842 ± 0.11	-0.334 ± 0.12
UUAUAGCAAUAUUACGCGUU	-3.58 ± 0.16	-2.16 ± 0.17
UUAUAGCAAUAUUACGGAGC	–	-2.95 ± 0.43
UUAUAGCAAUAUUACGGCAC	-2.82 ± 0.36	-2.51 ± 0.49
UUAUAGCAAUAUUACGGCAG	-0.689 ± 0.094	-0.0118 ± 0.13
UUAUAGCAAUAUUACGGCCU	-1.48 ± 0.18	-1.09 ± 0.23
UUAUAGCAAUAUUACGGGGG	-3.15 ± 0.4	–
UUAUAGCAAUAUUACGGUCU	-3.22 ± 0.25	-1.28 ± 0.22
UUAUAGCAAUAUUACGGUGA	-0.606 ± 0.12	-0.405 ± 0.14
UUAUAGCAAUAUUACGGUUA	-0.941 ± 0.08	-0.0464 ± 0.084
UUAUAGCAAUAUUACGGUUG	-1.32 ± 0.12	-0.629 ± 0.15
UUAUAGCAAUAUUACGUCCG	-1.64 ± 0.17	-1 ± 0.17
UUAUAGCAAUAUUACGUGGU	-3.55 ± 0.35	-3.15 ± 0.35
UUAUAGCAAUAUUACGUUGC	-3.27 ± 0.36	-3.07 ± 0.4
UUAUAGCAAUAUUACGUUGG	-2.91 ± 0.22	-1.86 ± 0.21

Sequence	self-splicing fitness (ln) (30 °C)	self-splicing fitness (ln) (37 °C)
UUAUAGCAAUAUUACGUUUU	-3.61 ± 0.25	-2.64 ± 0.28
UUCAAGCAAUAUUACGAAAU	-3.5 ± 0.25	-1.43 ± 0.19
UUCAAGCAAUAUUACGAGUG	-0.827 ± 0.06	-0.257 ± 0.077
UUCAAGCAAUAUUACGAUGG	-2.38 ± 0.19	-1.95 ± 0.17
UUCAAGCAAUAUUACGCGCU	-1.69 ± 0.12	-1.44 ± 0.13
UUCAAGCAAUAUUACGCUAC	-3 ± 0.25	-1.52 ± 0.26
UUCAAGCAAUAUUACGCUGC	-2.71 ± 0.3	-1.92 ± 0.23
UUCAAGCAAUAUUACGCUGG	-2.29 ± 0.13	-3.05 ± 0.24
UUCAAGCAAUAUUACGCUUA	-1.32 ± 0.096	-1.2 ± 0.096
UUCAAGCAAUAUUACGCUUG	-2.15 ± 0.35	-1.01 ± 0.26
UUCAAGCAAUAUUACGCUUU	-5.08 ± 0.41	-2.37 ± 0.28
UUCAAGCAAUAUUACGUACG	-1.19 ± 0.13	-0.699 ± 0.21
UUCAAGCAAUAUUACGUAGG	-1.53 ± 0.08	-0.995 ± 0.13
UUCAAGCAAUAUUACGUAUG	-3.21 ± 0.22	-1.64 ± 0.17
UUCAAGCAAUAUUACGUCAG	-3.43 ± 0.2	-1.23 ± 0.14
UUCAAGCAAUAUUACGUCAU	-2.97 ± 0.15	-2.59 ± 0.13
UUCAAGCAAUAUUACGUUGA	-2.77 ± 0.21	-2.7 ± 0.21
UUCCAGCAAUAUUACGAAGG	-3.8 ± 0.22	-3.2 ± 0.37
UUCCAGCAAUAUUACGAAUC	-4.37 ± 0.31	-1.09 ± 0.41
UUCCAGCAAUAUUACGACCG	-1.25 ± 0.099	-0.758 ± 0.14
UUCCAGCAAUAUUACGACUG	-3.9 ± 0.21	-2.99 ± 0.23
UUCCAGCAAUAUUACGAGAU	-3.68 ± 0.43	-0.948 ± 0.19
UUCCAGCAAUAUUACGAGGG	-3.28 ± 0.15	-1.28 ± 0.15
UUCCAGCAAUAUUACGAUCA	-1.26 ± 0.2	-1.27 ± 0.2
UUCCAGCAAUAUUACGCACG	-1.72 ± 0.086	-0.884 ± 0.13
